Measurements as given in patent publication US20110008345A1 (GlaxoSmithKline, published 2011).
Changes are numbered by the printed parent chain. Names may count otherwise. “And” between values parts separate entries of the source, which are not always exact repeats. Equal values may be shown once. One block for each binder: values may come before it.

Tests used:
[1] = biological target: T1, recombinant E. coli-expressed human IL-4 (human, UniProt P05112 25-153); test: SPR stoichiometry
T1 construct: made and purified at GSK; also called Interleukin-4; rhIL-4
T1 sequence: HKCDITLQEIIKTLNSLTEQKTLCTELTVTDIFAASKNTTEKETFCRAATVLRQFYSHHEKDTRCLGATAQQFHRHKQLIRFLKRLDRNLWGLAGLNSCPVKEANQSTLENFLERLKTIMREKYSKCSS

[2] = biological target: T2, recombinant E. coli-expressed human IL-13 (human, UniProt P35225 35-146); test: SPR stoichiometry
T2 construct: made and purified at GSK; also called Interleukin-13; rhIL-13

[3] = biological target: T2, recombinant E. coli-expressed human …; test: SPR exp 2
[4] = biological target: T1, recombinant E. coli-expressed human IL-4; test: SPR, purified
[5] = biological target: T2, recombinant E. coli-expressed human …; test: SPR, purified
[6] = biological target: T1, recombinant E. coli-expressed human IL-4; test: SPR exp 2
[7] = biological target: T2, recombinant E. coli-expressed human …; test: SPR exp 1
[8] = biological target: T1, recombinant E. coli-expressed human IL-4; test: SPR exp 1
[9] = biological target: T3, recombinant E. coli-expressed cynomolgus IL-4 (cynomolgus, UniProt P79339 25-153); test: SPR
T3 construct: also called cyno IL-4
T3 sequence (looked up): T1 sequence with E26K, V29I, F33L

[10] = biological target: T4, recombinant E. coli-expressed cynomolgus IL-13 (cynomolgus, UniProt Q0PW92 21-132); test: SPR
T4 construct: also called cyno IL-13

[11] = biological target: T2, recombinant E. coli-expressed human …; test: SPR
[12] = biological target: T1, recombinant E. coli-expressed human IL-4; test: cell-based or functional assay
[13] = biological target: T1, recombinant E. coli-expressed human IL-4; test: ELISA, IL-4 binding to IL4Ralpha-Fc
[14] = biological target: T2, recombinant E. coli-expressed human …; test: SPR; remark: listed apart in the source
[15] = biological target: T1, recombinant E. coli-expressed human IL-4; test: ELISA
recombinant human VEGF = biological target: T5, recombinant human VEGF (human, UniProt P15692-4 27-191); test: ELISA
T5 construct: also called VEGF165; hVEGF165

recombinant human HER2 = biological target: T6, recombinant human HER2 (human, UniProt P04626 23-652, limits assumed); test: ELISA
T6 construct: bought

B5: BPC1615 (bispecific antibody, human IgG1, kappa)
heavy: not shown
light: EIVLTQSPATLSLSPGERATLSCRASQNISDYLHWYQQKPGQAPRLLIYYASQSISGIPARFSGSGSGTDFTLTISSLEPEDFAVYYCQNGHSFPLTFGGGTKVEIKRTVAAPSVFIFPPSDEQLKSGTASVVCLLNNFYPREAKVQWKVDNALQSGNSQESVTEQDSKDSTYSLSSTLTLSKADYEKHKVYACEVTHQGLSSPVTKSFNRGEC
notes: also called 656H TVAAPS-210 & 656kappa
Kd [11]: 0.085 nM

B6: DOM9-112-210 domain antibody (other)
VH: EVQLLESGGGLVQPGGSLRLSCAASGFTFRNFGMGWVRQAPGKGLEWVSWIISSGTETYYADSVKGRFTISRDNSKNTLYLQMNSLRAEDTAVYYCAKSLGRFDYWGQGTLVTVSS
notes: anti-IL-4 dAb
Mean IC50 (whole blood phospho-STAT6) [12]: 3.51 nM
IC50 [13]: 36.8 nM

B7: BPC1609 (bispecific antibody, human IgG1, kappa)
heavy: not shown
light: DIVMTQSPLSLPVTPGEPASISCRSSQNIVHINGNTYLEWYLQKPGQSPRLLIYKISDRFSGVPDRFSGSGSGTDFTLKISRVEADDVGIYYCFQGSHVPWTFGQGTKLEIKRTVAAPSVFIFPPSDEQLKSGTASVVCLLNNFYPREAKVQWKVDNALQSGNSQESVTEQDSKDSTYSLSSTLTLSKADYEKHKVYACEVTHQGLSSPVTKSFNRGEC
Kd [11]: 1.01 nM

B8: 586H-ELQLE-210 (bispecific antibody, human IgG1, kappa)
heavy: not shown
light: B7 light
Kd [14]: 0.43 nM
binding result [15]: binds

B9: 586H-EPKSC-210 (bispecific antibody, human IgG1, kappa)
heavy: not shown
light: B7 light
Kd [14]: 0.43 nM
binding result [15]: binds

B10: 586H-G4S-210 (bispecific antibody, human IgG1, kappa)
heavy: not shown
light: B7 light
Kd [14]: 0.42 nM
IC50 [13]: 29.9 nM

B11: 586H-ASTKG-210 (bispecific antibody, human IgG1, kappa)
heavy: not shown
light: B7 light
Kd [14]: 0.4 nM
IC50 [13]: 27.3 nM

B12: BPC1612 (bispecific antibody, human IgG1, kappa)
heavy: not shown
light: B7 light
Kd [11]: 0.565 nM

Next, values leading:

Stoichiometry [1]: 1.8
Stoichiometry [2]: 1.8
Kd [3]: 0.756 nM and 0.621 nM
koff [3]: 0.000425 s⁻¹ and 0.000347 s⁻¹
kon [3]: 563000 M⁻¹ s⁻¹ and 559000 M⁻¹ s⁻¹
Kd [4]: 0.028 nM
Kd [5]: 1.2 nM
Kd [6]: 0.063 nM and 0.052 nM
koff [6]: 0.000135 s⁻¹ and 0.000111 s⁻¹
kon [6]: 2.14e+06 M⁻¹ s⁻¹ and 2.13e+06 M⁻¹ s⁻¹
B1: PascoL-G4S-474 (bispecific antibody, human IgG1, kappa)
heavy: not shown
light: DIVLTQSPSSLSASVGDRVTITCKASQSVDYDGDSYMNWYQQKPGKAPKLLIYAASNLESGIPSRFSGSGSGTDFTFTISSLQPEDIATYYCQQSNEDPPTFGQGTKVEIKRTVAAPSVFIFPPSDEQLKSGTASVVCLLNNFYPREAKVQWKVDNALQSGNSQESVTEQDSKDSTYSLSSTLTLSKADYEKHKVYACEVTHQGLSSPVTKSFNRGECGGGGSGVQLLESGGGLVQPGGSLRLSCAASGFTFAWYDMGWVRQAPGKGLEWVSSIDWHGEVTYYADSVKGRFTISRDNSKNTLYLQMNSLRAEDTAVYYCATAEDEPGYDYWGQGTLVTVSS

Stoichiometry [1]: 1.7
Stoichiometry [2]: 3.5
Kd [4]: 0.035 nM
Kd [5]: 0.87 nM
B2: PascoHL-G4S-474 (bispecific antibody, human IgG1, kappa)
heavy: not shown
light: B1 light

Kd [7]: 0.67 nM
koff [7]: 0.00026 s⁻¹
kon [7]: 390000 M⁻¹ s⁻¹
Stoichiometry [1]: 1.8
Stoichiometry [2]: 1.9
Kd [4]: 0.036 nM
Kd [5]: 0.58 nM
Kd [8]: 0.02 nM
koff [8]: 8.6e-05 s⁻¹
kon [8]: 5.1e+06 M⁻¹ s⁻¹
B3: PascoH-G4S-474 (bispecific antibody, human IgG1, kappa)
heavy: not shown
light: DIVLTQSPSSLSASVGDRVTITCKASQSVDYDGDSYMNWYQQKPGKAPKLLIYAASNLESGIPSRFSGSGSGTDFTFTISSLQPEDIATYYCQQSNEDPPTFGQGTKVEIKRTVAAPSVFIFPPSDEQLKSGTASVVCLLNNFYPREAKVQWKVDNALQSGNSQESVTEQDSKDSTYSLSSTLTLSKADYEKHKVYACEVTHQGLSSPVTKSFNRGEC

Kd [7]: 0.84 nM
koff [7]: 0.00031 s⁻¹
kon [7]: 360000 M⁻¹ s⁻¹
Stoichiometry [1]: 1.8
Stoichiometry [2]: 1.9
Kd [4]: 0.037 nM
Kd [5]: 0.71 nM
Kd [9]: 0.0439 nM
koff [9]: 8.14e-05 s⁻¹
kon [9]: 1.85e+06 M⁻¹ s⁻¹
Kd [10]: 18.6 nM
koff [10]: 0.0109 s⁻¹
kon [10]: 586000 M⁻¹ s⁻¹
Kd [8]: 0.02 nM
koff [8]: 9.4e-05 s⁻¹
kon [8]: 4.8e+06 M⁻¹ s⁻¹
B4: PascoH-474 (bispecific antibody, human IgG1, kappa)
heavy: not shown
light: B3 light
notes: also called BPC1000

binding result (recombinant human VEGF): binds
B13: BPC1803 (bispecific antibody, human IgG1, kappa)
heavy: not shown
light: DIVMTQSPLSLPVTPGEPASISCRSSQSIVQSNGDTYLEWYLQKPGQSPQLLIYRVSNRFSGVPDRFSGSGSGTDFTLKISRVEAEDVGVYYCFQGSHVPYTFGQGTKLEIKRTVAAPSVFIFPPSDEQLKSGTASVVCLLNNFYPREAKVQWKVDNALQSGNSQESVTEQDSKDSTYSLSSTLTLSKADYEKHKVYACEVTHQGLSSPVTKSFNRGEC
notes: anti-VEGF tear lipocalin fusion; also called antiIGF1R Heavy Chain-GS-TLPC

binding result (recombinant human VEGF): binds
B14: BPC1804 (bispecific antibody, human IgG1, kappa)
heavy: not shown
light: B13 light
notes: anti-VEGF tear lipocalin fusion

binding result (recombinant human HER2): binds
B15: BPC1808 (bispecific antibody, human IgG1, kappa)
heavy: not shown
light: B13 light
notes: anti-HER2 DARPin fusion

binding result (recombinant human HER2): binds
B16: BPC1806 (bispecific antibody, human IgG1, kappa)
heavy: not shown
light: B13 light
notes: anti-HER2 Affibody fusion

binding result (recombinant human HER2): binds
B17: BPC1805 (bispecific antibody, human IgG1, kappa)
heavy: not shown
light: B13 light
notes: anti-HER2 Affibody fusion; also called antiIGF1R Heavy Chain-GS-AFFI

binding result (recombinant human HER2): binds
B18: BPC1807 (bispecific antibody, human IgG1, kappa)
heavy: not shown
light: B13 light
notes: anti-HER2 DARPin fusion; also called antiIGF1R Heavy Chain-GS-DRPN
